From patent US20250186580A1 (TRIDEM BIOSCIENCE, published 2025)

Target: ActHIB, Haemophilus influenzae type b capsular polysaccharide (PRP) tetanus toxoid conjugate, withou (UniProt P04958 2-1315)
Assay: competitive ELISA, soluble murine Fc-dectin-1a on coated glucan

B1: soluble murine Fc-dectin-1a receptor (InvivoGen) (Fc fusion)
chain: EYGHNSGRNPEEKDNFLSRNKENHKPTESSLDEKVAPSKASQTTGGFSQPCLPNWIMHGKSCYLFSFSGNSWYGSKRHCSQLGAHLLKIDNSKEFEFIESQTSSHRINAFWIGLSRNQSEGPWFWEDGSAFFPNSFQVRNTAPQESLLHNCVWIHGSEVYNQICNTSSYSICEKEL
Does B1 bind?
Result: no binding
